# Test results: PMC2137388
# Target: L chains of normal human 7S γ-globulin (human)
# Assay: AUC
substance,measurement,value
L chains of normal human 7S γ-globulin (natural protein),per cent of the material at the molecular weight of the dimer,84 per cent
